Experimental data published in patent US20220177594A1.

Assays:
[1] = target: Feline_OSMR_hlgG1_Fc (feline); experiment: indirect ELISA, fOSMR coated; OD ratio to antibody expression control
[2] = target: Feline_OSMR_hlgG1_Fc (feline); experiment: SPR Biacore
[3] = target: Canine_OSMR_hlgG1_Fc (canine); experiment: SPR Biacore, OSMR on chip
[4] = target: Feline_OSMR_hlgG1_Fc (feline); experiment: SPR Biacore, OSMR on chip
[5] = target: Canine_OSMR_hlgG1_Fc (canine); experiment: SPR Biacore

Chain of Canine_OSMR_hlgG1_Fc (canine) (chain, as listed by the source limits assumed, form in doubt): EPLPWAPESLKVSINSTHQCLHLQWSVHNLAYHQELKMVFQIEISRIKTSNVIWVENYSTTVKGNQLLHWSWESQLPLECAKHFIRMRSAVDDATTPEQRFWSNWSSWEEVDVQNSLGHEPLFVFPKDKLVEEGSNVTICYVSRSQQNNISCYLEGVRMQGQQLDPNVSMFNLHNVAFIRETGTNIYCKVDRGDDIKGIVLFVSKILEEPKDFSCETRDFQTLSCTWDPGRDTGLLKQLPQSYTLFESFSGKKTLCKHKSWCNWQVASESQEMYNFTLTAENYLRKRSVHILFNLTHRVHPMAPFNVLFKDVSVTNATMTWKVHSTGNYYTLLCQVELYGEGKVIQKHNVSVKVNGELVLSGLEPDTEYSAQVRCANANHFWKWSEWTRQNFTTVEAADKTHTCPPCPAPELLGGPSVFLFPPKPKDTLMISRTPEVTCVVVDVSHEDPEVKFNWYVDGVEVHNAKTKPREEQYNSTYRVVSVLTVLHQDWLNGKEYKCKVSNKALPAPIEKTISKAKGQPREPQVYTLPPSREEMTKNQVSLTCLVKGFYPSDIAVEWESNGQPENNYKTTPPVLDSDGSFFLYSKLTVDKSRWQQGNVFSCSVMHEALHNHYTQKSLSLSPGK
Chain of Feline_OSMR_hlgG1_Fc (feline) (chain, as listed by the source limits assumed, form in doubt): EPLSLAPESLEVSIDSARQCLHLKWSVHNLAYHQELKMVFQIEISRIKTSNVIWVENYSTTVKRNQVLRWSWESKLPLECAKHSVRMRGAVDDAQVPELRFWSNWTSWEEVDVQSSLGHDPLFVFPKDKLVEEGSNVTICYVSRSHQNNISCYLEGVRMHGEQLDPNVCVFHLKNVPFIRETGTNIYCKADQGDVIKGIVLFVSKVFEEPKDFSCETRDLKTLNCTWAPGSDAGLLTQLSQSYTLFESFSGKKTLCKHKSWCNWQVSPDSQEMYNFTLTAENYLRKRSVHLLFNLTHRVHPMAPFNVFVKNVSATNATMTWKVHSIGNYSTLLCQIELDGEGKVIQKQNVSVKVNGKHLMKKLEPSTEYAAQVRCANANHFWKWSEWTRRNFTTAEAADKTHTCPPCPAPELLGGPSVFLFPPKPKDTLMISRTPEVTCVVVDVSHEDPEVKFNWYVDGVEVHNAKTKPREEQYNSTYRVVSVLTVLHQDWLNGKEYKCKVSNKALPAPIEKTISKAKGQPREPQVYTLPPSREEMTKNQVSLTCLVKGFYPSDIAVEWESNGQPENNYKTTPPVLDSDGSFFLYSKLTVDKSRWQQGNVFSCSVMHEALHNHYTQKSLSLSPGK

| Binder | ELISA ratio [1] [OD ratio] | Kd [2] [nM] | koff [2] [s⁻¹] | kon [2] [M⁻¹ s⁻¹] | Kd [3] [nM] | koff [3] [s⁻¹] | kon [3] [M⁻¹ s⁻¹] | Kd [4] [nM] | koff [4] [s⁻¹] | kon [4] [M⁻¹ s⁻¹] | Kd [5] [nM] | koff [5] [s⁻¹] | kon [5] [M⁻¹ s⁻¹] |
| --- | --- | --- | --- | --- | --- | --- | --- | --- | --- | --- | --- | --- | --- |
| mouse: canine 02D09 chimera (antibody, V domains shown) VH: EVQLVESGGGLVKPGGSLTLSCAASGFTFSDYGMHWLRQAPEKGLEWVAYISSGSRAVFFADTVKGRFTISRDNAKNTLFLQMTSLRSDDTAMYYCARDRYDGRGFAYWGQGTLVTVSA VL: DIVLTQSPATLSVTPGDSVSLSCRASQSISNNLHWYQQTSHESPRLLITYASQSISGIPSRFSGSGSGTDFTLSINSVETEDFGMYFCQQSNSWPLTFGAGTKLELKR | 1.61 | 9.08 | 0.00119 | 131000 | 12.8 | 0.00328 | 256000 | 6.65 | 0.000942 | 142000 | – | – | – |
| mouse: canine 09E09 chimera (antibody, V domains shown) VH: DVKLVESGEGLVKPGGSLKLSCAASGFTFSSYAMSWVRQTPEKRLEWVAYISSGGDYIYYADTVKGRFTISRDNARNTLYLQMSSLKSEDTAMYYCTRDPITGTFAYWGQGTLVTVSA VL: DLQMTQTTSSLSASLGDRVTISCRASQDINNYLNWYQQKPDGTVKLLIYYTSTLHSGVPSRFSGSGSGTDYSLTISNLEQEDIATYFCQQGNTLPWTFGGGTKLEIKR | 1.61 | 1.24 | 0.000945 | 759000 | 5.29 | 0.00104 | 196000 | 2.37 | 0.000697 | 294000 | 3.83 | 0.0021 | 572000 |
| Mu_09E09 (antibody, V domains shown) VH: DVKLVESGEGLVKPGGSLKLSCAASGFTFSSYAMSWVRQTPEKRLEWVAYISSGGDYIYYADTVKGRFTISRDNARNTLYLQMSSLKSEDTAMYYCTRDPITGTFAYWGQGTLVTVSA VL: DLQMTQTTSSLSASLGDRVTISCRASQDINNYLNWYQQKPDGTVKLLIYYTSTLHSGVPSRFSGSGSGTDYSLTISNLEQEDIATYFCQQGNTLPWTFGGGTKLEIK | – | – | – | – | 7.87 | – | – | 3.75 | – | – | – | – | – |
| Mu_10F07 (antibody, V domains shown) VH: DVKLVESGEGLVKPGGSLKLSCAASGFTFSSYAMSWVRQTPEKRLEWVTYISSGGDYFYYADTVKGRFTISRDNARNTLYLQMSSLKSEDTAMYYCTRDPITGTFAYWGQGTLVTVSA VL: DIQMTQTTSSLSASLGDRVTISCRASQDITNYLNWYQQKPDGTVKLLIYYTSTLHSGVPSRFSGSGSGTDFSLTISNLEQEDIATYFCQQGHMLPWTFGGGTKLEIK | – | – | – | – | 2.03 | – | – | 1.59 | – | – | – | – | – |
| mouse: canine 10F07 chimera (antibody, V domains shown) VH: DVKLVESGEGLVKPGGSLKLSCAASGFTFSSYAMSWVRQTPEKRLEWVTYISSGGDYFYYADTVKGRFTISRDNARNTLYLQMSSLKSEDTAMYYCTRDPITGTFAYWGQGTLVTVSA VL: DIQMTQTTSSLSASLGDRVTISCRASQDITNYLNWYQQKPDGTVKLLIYYTSTLHSGVPSRFSGSGSGTDFSLTISNLEQEDIATYFCQQGHMLPWTFGGGTKLEIKR | 1.76 | 1.57 | 0.000346 | 220000 | 1.38 | 0.000222 | 161000 | 0.022 | 4.4e-07 | 20000 | 6.13 | 0.000302 | 49400 |
| mouse: canine 19F07 chimera (antibody, V domains shown) VH: EVKLVESEGGLVQPGSSMKLSCTASGFTFSDYYMAWVRQVPEKGLEWVANINYDGSSTYYLDSLKSRFIISRDNAKNILYLQMSSLKSEDTATYYCARGLTWDFDVWGTGTTVTVSS VL: DIVMTQSHKFMSPSVGDRVSITCKASQDVDTAVAWYQQKPGQSPKLLIYLASTRHTGVPDRFTGSGSGTDFTLTISNVQSEDLADYFCQQYSRFPLTFGAGTKLELKR | 1.72 | 0.312 | 8.06e-05 | 242000 | 442 | 0.00084 | 1900 | 44.5 | 0.002 | 45100 | 7.49 | 0.000775 | 88400 |
| Mu_19F07 (antibody, V domains shown) VH: EVKLVESEGGLVQPGSSMKLSCTASGFTFSDYYMAWVRQVPEKGLEWVANINYDGSSTYYLDSLKSRFIISRDNAKNILYLQMSSLKSEDTATYYCARGLTWDFDVWGTGTTVTVSS VL: DIVMTQSHKFMSPSVGDRVSITCKASQDVDTAVAWYQQKPGQSPKLLIYLASTRHTGVPDRFTGSGSGTDFTLTISNVQSEDLADYFCQQYSRFPLTFGAGTKLELK | – | – | – | – | 0.951 | – | – | 0.0207 | – | – | – | – | – |
